# Literature values in paper PMC2934757.
# Target: IGF-1 (Homo sapiens) (UniProt P05019)
# UniProt P05019, sequence (P05019 49-118): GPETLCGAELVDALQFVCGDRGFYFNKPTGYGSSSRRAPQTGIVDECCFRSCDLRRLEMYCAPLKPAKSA
substance,measurement,value
IGFBP-2 1-248 (from UniProt P18065),Kd,7 nM
